Target: HLA-E*01:03 expressed on HLA-E knockout HeLa cells by mRNA transfection (human, UniProt P13747 22-358)
Assay: cell-based or functional assay

B1: HLA-E activator receptor (third generation CAR: HLA-E scFv, CD8 hinge, CD28 transmembrane domain, CD28/41BB/CD3 intracellular domain) (receptor)
chain: QVQLRESGPSLVKPSQTLSLTCTVSGFSLTSYGVHWVRQPPGKGLEWLGVIWTGGTTNYNTALMSRLSITKDNSKSQVFLKMNSLQTDDTAIYYCARDGDSYNREAWFAYWGQGTLVTVSAGGGGSGGGGSGGGGSGGQIVLTQSPAVISASPGEKVILTCSASSSVSYMHWFQQKPGTSPKLWIYGTSNLASGVPARFSGGGSGTSYSLTISRMEAEDAATYYCQQRSRYPFTFGSGTKLEIKTTTPAPRPPTPAPTIASQPLSLRPEACRPAAGGAVHTRGLDFACDFWVLVVVGGVLACYSLLVTVAFIIFWVRSKRSRLLHSDYMNMTPRRPGPTRKHYQPYAPPRDFAAYRSKRGRKKLLYIFKQPFMRPVQTTQEEDGCSCRFPEEEEGGCELRVKFSRSADAPAYKQGQNQLYNELNLGRREEYDVLDKRRGRDPEMGGKPRRKNPQEGLYNELQKDKMAEAYSEIGMKGERRRGKGHDGLYQGLSTATKDTYDALHMQALPPR
**Q.** With B1 as the binder, how does the “EC50 of specific killing of HeLa cells by primary T cells” value read?
**A.** ~10000 HLA-E molecules

From US20250177445A1 (A2 BIOTHERAPEUTICS, published 2025)
